Test results: article PMC3087488 (Journal of Oncology, 2011)
“And” between values parts separate entries of the source, which are not always exact repeats. Identical values can stand only once. One block for each compound: values may come before it.

What was measured:
[1] = plasma gemcitabine concentration in patients; assay type: in vivo, human; settings: completion of infusion, gemcitabine 1250 mg/m^2
Method: Plasma motesanib and gemcitabine concentrations were analyzed using a validated liquid chromatography/tandem mass spectrometry (LC-MS/MS) method, respectively. […] All pharmacokinetic parameter estimates were calculated using standard noncompartmental methods and WinNonlin Professional software on […] (Version 5.1.1, Pharsight Corporation, Mountain View, Calif, USA).

[2] = bevacizumab 15-mg/kg cohort plus carboplatin/paclitaxel; locally advanced or metastatic NSCLC; grade 3/4, n = 5; cited from earlier work
[3] = adverse events in patients (CTCAE version 3.0); assay type: in vivo, human
Method: Adverse events were recorded throughout the study and graded (including DLTs) according to the Common Terminology Criteria for Adverse Events, version 3.0. Samples for assessment of hematology, blood chemistry, urinalysis, and thyroid function were collected on day 1 of each cycle.

[4] = serum panitumumab concentration in patients; assay type: in vivo, human; settings: panitumumab 9 mg/kg
[5] = 8 patients who received panitumumab and gemcitabine/cisplatin only
[6] = all 41 patients (7%), only in patients who also received motesanib

Plasma gemcitabine concentration (cycle 1), mean (SD) ([1]; No motesanib (0 mg QD), n 8): 11000 ng/mL and 11000 (4220) ng/mL
Plasma gemcitabine concentration (cycle 1), mean (SD) ([1]; with motesanib 50 mg QD, n 8): 8450 (7310) ng/mL
Plasma gemcitabine concentration (cycle 1), mean ([1]; with motesanib 75 mg BID, n 2): 8290 (NR) ng/mL
Plasma gemcitabine concentration (cycle 1), mean (SD) ([1]; with motesanib 75 mg QD, n 6): 14400 (6020) ng/mL
Plasma gemcitabine concentration (cycle 1), mean (SD) ([1]; with motesanib 100 mg QD, n 6): 6160 (3690) ng/mL
Plasma gemcitabine concentration (cycle 1), mean (SD) ([1]; with motesanib 125 mg QD, n 11): 16100 ng/mL and 16100 (6800) ng/mL
Compound: Nc1ccn([C@@H]2O[C@H](CO)[C@@H](O)C2(F)F)c(=O)n1 [gemcitabine]

Compound: bevacizumab
patient incidence rate of thrombotic events [2]: 17.6%

Compound: panitumumab
panitumumab-related dermatitis acneiform [3, 5]: 5 patients
panitumumab-related erythema [3, 5]: 5 patients
panitumumab-related nausea [3, 5]: 6 patients
panitumumab-related pruritus [3, 5]: 5 patients
panitumumab-related rash [3, 5]: 6 patients
panitumumab-related anemia ([3]; all 41 patients): 7 patients
panitumumab-related anorexia ([3]; all 41 patients): 11 patients
panitumumab-related diarrhea ([3]; all 41 patients): 16 patients
panitumumab-related dry skin ([3]; all 41 patients): 7 patients
panitumumab-related fatigue ([3]; all 41 patients): 19 patients
panitumumab-related hypomagnesemia ([3]; all 41 patients): 17 patients
panitumumab-related nausea ([3]; all 41 patients): 21 patients
panitumumab-related pruritus ([3]; all 41 patients): 18 patients
panitumumab-related rash ([3]; all 41 patients): 22 patients
panitumumab-related vomiting ([3]; all 41 patients): 12 patients
serious panitumumab-related diarrhea ([3]; all 41 patients (5%)): 2 patients
serious panitumumab-related dehydration ([3]; all 41 patients (7%)): 3 patients
serious panitumumab-related deep vein thrombosis [3, 6]: 3 patients
serious panitumumab-related pulmonary embolism [3, 6]: 3 patients
patients with serious panitumumab-related events ([3]; all 41 patients, eleven patients): 27%
patients who discontinued panitumumab because of adverse events ([3]; all cohorts): 11 patients
Serum panitumumab, Cycle 4 postdose mean concentration (SD) ([4]; No motesanib (0 mg QD), n 3): 275 (118) μg/mL
Serum panitumumab, Cycle 4 predose mean concentration (SD) ([4]; No motesanib (0 mg QD), n 4): 56.5 (39.6) μg/mL
Serum panitumumab, Cycle 2 postdose mean concentration (SD) ([4]; No motesanib (0 mg QD), n 6): 186 (62.9) μg/mL
Serum panitumumab, Cycle 2 predose mean concentration (SD) ([4]; No motesanib (0 mg QD), n 6): 11.2 (15.5) μg/mL
Serum panitumumab, Cycle 1 postdose mean concentration (SD) ([4]; No motesanib (0 mg QD), n 8): 206 (76.4) μg/mL
Serum panitumumab, Cycle 4 postdose mean concentration (SD) ([4]; with motesanib 50 mg QD, n 3): 232 (52.8) μg/mL
Serum panitumumab, Cycle 4 predose mean concentration (SD) ([4]; with motesanib 50 mg QD, n 3): 10.5 (6.4) μg/mL
Serum panitumumab, Cycle 2 postdose mean concentration (SD) ([4]; with motesanib 50 mg QD, n 5): 193 (37.5) μg/mL
Serum panitumumab, Cycle 1 postdose mean concentration (SD) ([4]; with motesanib 50 mg QD, n 7): 174 (24.9) μg/mL
Serum panitumumab, Cycle 2 predose mean concentration (SD) ([4]; with motesanib 50 mg QD, n 7): 9.0 (5.8) μg/mL
Serum panitumumab, Cycle 2 postdose mean concentration ([4]; with motesanib 75 mg BID, n 1): 217 (NR) μg/mL
Serum panitumumab, Cycle 2 predose mean concentration ([4]; with motesanib 75 mg BID, n 1): 11.2 (NR) μg/mL
Serum panitumumab, Cycle 1 postdose mean concentration ([4]; with motesanib 75 mg BID, n 2): 189 (NR) μg/mL
Serum panitumumab, Cycle 4 predose mean concentration (SD) ([4]; with motesanib 75 mg QD, n 5): 32.5 (21.3) μg/mL
Serum panitumumab, Cycle 1 postdose mean concentration (SD) ([4]; with motesanib 75 mg QD, n 6): 158 (24.2) μg/mL
Serum panitumumab, Cycle 2 postdose mean concentration (SD) ([4]; with motesanib 75 mg QD, n 6): 194 (21.5) μg/mL
Serum panitumumab, Cycle 2 predose mean concentration (SD) ([4]; with motesanib 75 mg QD, n 6): 13.1 (13.5) μg/mL
Serum panitumumab, Cycle 4 postdose mean concentration (SD) ([4]; with motesanib 75 mg QD, n 6): 218 (26.1) μg/mL
Serum panitumumab, Cycle 4 postdose mean concentration ([4]; with motesanib 100 mg QD, n 2): 290 (NR) μg/mL
Serum panitumumab, Cycle 2 postdose mean concentration (SD) ([4]; with motesanib 100 mg QD, n 4): 224 (51.8) μg/mL
Serum panitumumab, Cycle 4 predose mean concentration (SD) ([4]; with motesanib 100 mg QD, n 4): 41.6 (16.5) μg/mL
Serum panitumumab, Cycle 1 postdose mean concentration (SD) ([4]; with motesanib 100 mg QD, n 5): 194 (27.1) μg/mL
Serum panitumumab, Cycle 2 predose mean concentration (SD) ([4]; with motesanib 100 mg QD, n 5): 18.9 (10.7) μg/mL
Serum panitumumab, Cycle 4 postdose mean concentration (SD) ([4]; with motesanib 125 mg QD, n 3): 170 (55.0) μg/mL
Serum panitumumab, Cycle 4 predose mean concentration (SD) ([4]; with motesanib 125 mg QD, n 3): 21.7 (22.0) μg/mL
Serum panitumumab, Cycle 2 postdose mean concentration (SD) ([4]; with motesanib 125 mg QD, n 6): 213 (39.0) μg/mL
Serum panitumumab, Cycle 2 predose mean concentration (SD) ([4]; with motesanib 125 mg QD, n 6): 13.4 (14.2) μg/mL
Serum panitumumab, Cycle 1 postdose mean concentration (SD) ([4]; with motesanib 125 mg QD, n 11): 203 (82.9) μg/mL
